In patent publication US11015206B2, “Compositions and methods comprising sequences having hydroxyphenylpyruvate dioxygenase (HPPD) activity” (PIONEER HI-BRED INTERNATIONAL, INC., priority 2014, dated 2021):
Changes are numbered by the printed parent chain. One block for each molecule: values may come before it.

Legend:
Type in all cases: biochemical, Z. mays
[1] = tested on: 4-hydroxyphenylpyruvate dioxygenase (HPPD); assay: OFF rate ratio: release of inhibitor from pre-formed enzyme-inhibitor complex; settings: Table 7; tembotrione; combinatorial variants
Procedure, shortened: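 Inhibitor release from pre-formed complex (enzyme 7.2 μM, inhibitor 8 μM, 1 h RT) tracked as accelerating HPPD activity at 320 nm over 12 min, coupled via 50 nM HGD with 100 μM HPP at pH 7. OFF rate ratio: steady-state velocity relative to uninhibited initial velocity.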

[2] = tested on: 4-hydroxyphenylpyruvate dioxygenase (HPPD); assay: Estimate of kcat from initial rate at saturating hydroxyphenylpyruvate without inhibitor (ON rate ratio assay)
Procedure, shortened: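 kcat was estimated from the initial reaction rate with known enzyme level (60 or 120 nM HPPD). Hydroxyphenylpyruvate was at a saturating 100 μM, with no inhibitor present.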

[3] = tested on: 4-hydroxyphenylpyruvate dioxygenase (HPPD); assay: Insensitivity parameter (ON × OFF) and trait fitness (ON × OFF × kcat/KM or × kcat); parameters: key to ON × OFF / Insensitivity, mesotrione, ON × OFF / Insensitivity, tembotrione, ON × OFF / Insensitivity, topramezone, ON × OFF / Insensitivity, sulcotrione, ON × OFF / Insensitivity, isoxaflutole (DKN), ON × OFF: insensitivity = ON rate ratio × OFF rate ratio (surrogate for KD)
Procedure, shortened: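 Trait fitness combines catalysis and insensitivity as kcat/KM × ON rate ratio × OFF rate ratio. The insensitivity parameter is the product of ON and OFF rate ratios, used in place of KD because the ON rate ratio is inverse.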

[4] = tested on: 4-hydroxyphenylpyruvate dioxygenase (HPPD); assay: ON rate ratio: HPPD reaction rate with vs without inhibitor in the 70 to 90 second interval; settings: Table 7; tembotrione; combinatorial variants
Procedure, shortened: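 Indicator of inhibitor on-rate: reaction velocity in the 70 to 90 second window with 4 μM inhibitor divided by that without. Reactions contained 100 μM HPP and 60 or 120 nM HPPD; slower binding gives a larger ratio.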

[5] = Table 7, combinatorial variants
[6] = Table 7, tembotrione, combinatorial variants

B3: P056028-F-09 (protein)
chain: MGPTPTATAAGAAVAAASAAEQAAFRLVGHRNFVRFNPRSDRFQTLAFHHVELWCADAASAAGRFSFALGVPLAARSDLSTGNSAHASLLLRSGSLSLLFTAPYAHGADAATAALPSFSAAAARRFAADHGLAVRAVALRVADAEDAFRASVAAGARPAFGPVDLGRGFRLAEVELYGDVVLRYVSYPDGAAGEPFLPGFEGVASQGAADYGLSRFDHIVGNVPELAPAAAYMAGFTGFHEFAEFTTEDVGTTESGLNSMALANNSENVLLPLNEPVHGTKRRSQIQTFLDHHGGPGVQHIALASDDVLRTLREMRARSAMGGFEFLPPPLSDYYDGVRRCAGDVLTEAQINECQELGVMVDRDDEGVLLQIFTKPVGDRPTFFLELIQRIGCMEKDEKGQEYQKGGCGGFGKGNFGQLFKSIEDYEKSLEAKQAAAAATAQGS
modifications: Zea mays variant form created by artificial means.
OFF rate ratio [1]: 0.360 | kcat ([2]; Megatable 3, shuffled variants): 0.285 s⁻¹ | kcat [2, 5]: 0.285 s⁻¹ | ON × OFF ([3]; Megatable 3, shuffled variants): 0.252 | ON × OFF × kcat ([3]; Megatable 3, shuffled variants): 4.30 | ON × OFF [3, 6]: 0.252 | ON × OFF × kcat [3, 6]: 4.30 | ON rate ratio [4]: 0.700

B4: P056028-F-03 (protein)
chain: B3 chain with A191G, Q206P, L385I, L387I, M394T, G417S
modifications: Zea mays variant form created by artificial means.
OFF rate ratio [1]: 0.491 | kcat ([2]; Megatable 3, shuffled variants): 0.217 s⁻¹ | kcat [2, 5]: 0.217 s⁻¹ | ON × OFF ([3]; Megatable 3, shuffled variants): 0.363 | ON × OFF × kcat ([3]; Megatable 3, shuffled variants): 4.73 | ON × OFF [3, 6]: 0.363 | ON × OFF × kcat [3, 6]: 4.73 | ON rate ratio [4]: 0.738

B6: P056028-F-08 (protein)
chain: B3 chain with P158K, Q206P, Y211L, R340K, L387I
modifications: Zea mays variant form created by artificial means.
OFF rate ratio [1]: 0.377 | kcat ([2]; Megatable 3, shuffled variants): 0.202 s⁻¹ | kcat [2, 5]: 0.202 s⁻¹ | ON × OFF ([3]; Megatable 3, shuffled variants): 0.266 | ON × OFF × kcat ([3]; Megatable 3, shuffled variants): 3.23 | ON × OFF [3, 6]: 0.266 | ON × OFF × kcat [3, 6]: 3.23 | ON rate ratio [4]: 0.705

B8: P056028-F-07 (protein)
chain: B3 chain with A191G, Q206P, R340K, L387I, Q434H
modifications: Zea mays variant form created by artificial means.
OFF rate ratio [1]: 0.322 | kcat ([2]; Megatable 3, shuffled variants): 0.357 s⁻¹ | kcat [2, 5]: 0.357 s⁻¹ | ON × OFF ([3]; Megatable 3, shuffled variants): 0.236 | ON × OFF × kcat ([3]; Megatable 3, shuffled variants): 5.04 | ON × OFF [3, 6]: 0.236 | ON × OFF × kcat [3, 6]: 5.04 | ON rate ratio [4]: 0.735

B10: P056028-F-06 (protein)
chain: B3 chain with A191G, Q206S, Y211L, S214N, R340K, E356K
modifications: Zea mays variant form created by artificial means.
OFF rate ratio [1]: 0.305 | kcat ([2]; Megatable 3, shuffled variants): 0.242 s⁻¹ | kcat [2, 5]: 0.242 s⁻¹ | ON × OFF ([3]; Megatable 3, shuffled variants): 0.225 | ON × OFF × kcat ([3]; Megatable 3, shuffled variants): 3.25 | ON × OFF [3, 6]: 0.225 | ON × OFF × kcat [3, 6]: 3.25 | ON rate ratio [4]: 0.739

B11: P056028-F-04 (protein)
chain: B3 chain with Q206P
modifications: Zea mays variant form created by artificial means.
OFF rate ratio [1]: 0.245 | kcat ([2]; Megatable 3, shuffled variants): 0.278 s⁻¹ | kcat [2, 5]: 0.278 s⁻¹ | ON × OFF ([3]; Megatable 3, shuffled variants): 0.161 | ON × OFF × kcat ([3]; Megatable 3, shuffled variants): 2.70 | ON × OFF [3, 6]: 0.161 | ON × OFF × kcat [3, 6]: 2.70 | ON rate ratio [4]: 0.660

The next lines start with results.

OFF rate ratio [1]: 0.033 | ON × OFF ([3]; Megatable 3, shuffled variants): 0.007 | ON × OFF [3, 6]: 0.007 | ON rate ratio [4]: 0.213
B1: Mz wt (protein)
chain: MGPTPTAAAAGAAVAAASAAEQAAFRLVGHRNFVRFNPRSDRFHTLAFHHVELWCADAASAAGRFSFGLGAPLAARSDLSTGNSAHASLLLRSGSLSFLFTAPYAHGADAATAALPSFSAAAARRFAADHGLAVRAVALRVADAEDAFRASVAAGARPAFGPVDLGRGFRLAEVELYGDVVLRYVSYPDGAAGEPFLPGFEGVASPGAADYGLSRFDHIVGNVPELAPAAAYFAGFTGFHEFAEFTTEDVGTAESGLNSMVLANNSENVLLPLNEPVHGTKRRSQIQTFLDHHGGPGVQHMALASDDVLRTLREMQARSAMGGFEFMAPPTSDYYDGVRRRAGDVLTEAQIKECQELGVLVDRDDQGVLLQIFTKPVGDRPTLFLEIIQRIGCMEKDEKGQEYQKGGCGGFGKGNFSQLFKSIEDYEKSLEAKQAAAAAAAQGS
modifications: Zea mays
kcat ([2]; Megatable 3, shuffled variants): 1.62 s⁻¹ | kcat [2, 5]: 1.62 s⁻¹ | ON × OFF × kcat ([3]; Megatable 3, shuffled variants): 0.68 | ON × OFF × kcat [3, 6]: 0.68

OFF rate ratio [1]: 0.291 | ON × OFF ([3]; Megatable 3, shuffled variants): 0.211 | ON × OFF [3, 6]: 0.211 | ON rate ratio [4]: 0.726
B2: P056028-F-10 (protein)
chain: B3 chain with A191G, Q206P, S214N, R340K, L387I
modifications: Zea mays variant form created by artificial means.
kcat ([2]; Megatable 3, shuffled variants): 0.228 s⁻¹ | kcat [2, 5]: 0.228 s⁻¹ | ON × OFF × kcat ([3]; Megatable 3, shuffled variants): 2.89 | ON × OFF × kcat [3, 6]: 2.89

OFF rate ratio [1]: 0.248 | ON × OFF ([3]; Megatable 3, shuffled variants): 0.186 | ON × OFF [3, 6]: 0.186 | ON rate ratio [4]: 0.752
B5: P056028-G-04 (protein)
chain: B3 chain with Q206P, Y211L, L385I
modifications: Zea mays variant form created by artificial means.
kcat ([2]; Megatable 3, shuffled variants): 0.227 s⁻¹ | kcat [2, 5]: 0.227 s⁻¹ | ON × OFF × kcat ([3]; Megatable 3, shuffled variants): 2.54 | ON × OFF × kcat [3, 6]: 2.54

OFF rate ratio [1]: 0.322 | ON × OFF ([3]; Megatable 3, shuffled variants): 0.228 | ON × OFF [3, 6]: 0.228 | ON rate ratio [4]: 0.706
B7: P056028-F-11 (protein)
chain: B3 chain with A191G, Q206P, N265D, L387I
modifications: Zea mays variant form created by artificial means.
kcat ([2]; Megatable 3, shuffled variants): 0.368 s⁻¹ | kcat [2, 5]: 0.368 s⁻¹ | ON × OFF × kcat ([3]; Megatable 3, shuffled variants): 5.04 | ON × OFF × kcat [3, 6]: 5.04

OFF rate ratio [1]: 0.259 | ON × OFF ([3]; Megatable 3, shuffled variants): 0.157 | ON × OFF [3, 6]: 0.157 | ON rate ratio [4]: 0.607
B9: P056028-G-10 (protein)
chain: B3 chain with P158K, Q206P, L327P, L387I, G417Q
modifications: Zea mays variant form created by artificial means.
kcat ([2]; Megatable 3, shuffled variants): 0.488 s⁻¹ | kcat [2, 5]: 0.488 s⁻¹ | ON × OFF × kcat ([3]; Megatable 3, shuffled variants): 4.61 | ON × OFF × kcat [3, 6]: 4.61

OFF rate ratio [1]: 0.304 | ON × OFF ([3]; Megatable 3, shuffled variants): 0.231 | ON × OFF [3, 6]: 0.231 | ON rate ratio [4]: 0.761
B12: P056028-G-02 (protein)
chain: B3 chain with Q206P, M233V, L387I
modifications: Zea mays variant form created by artificial means.
kcat ([2]; Megatable 3, shuffled variants): 0.383 s⁻¹ | kcat [2, 5]: 0.383 s⁻¹ | ON × OFF × kcat ([3]; Megatable 3, shuffled variants): 5.30 | ON × OFF × kcat [3, 6]: 5.30
